Assay results published in patent US20150024459A1.

Experiments:
[1] = biological target: IGF-1R on human cancer cell lines (human) (UniProt P08069); test: 125I-IGF-1 binding to MCF-7L cells; antibody at 1000 ng/mL
[2] = biological target: IGF-1R on human cancer cell lines (human) (UniProt P08069); test: 125I-IGF-1 binding to MCF-7L cells; antibody at 100 ng/mL
[3] = biological target: IGF-1R on human cancer cell lines (human) (UniProt P08069); test: cell-based or functional assay
[4] = biological target: IGF-1R and EGP-1 together on MCF-7, DU145 or ME-180 cells (human) (UniProt P08069); test: flow cytometry (FACScan), ME-180 cells; control
[5] = biological target: IGF-1R and EGP-1 together on MCF-7, DU145 or ME-180 cells (human) (UniProt P08069); test: flow cytometry (FACScan), MCF-7 cells; control
[6] = biological target: IGF-1R and EGP-1 together on MCF-7, DU145 or ME-180 cells (human) (UniProt P08069); test: flow cytometry (FACScan), DU145 cells; control

Substance | % binding of 125I-IGF-1 in the presence of the antibody [1] [%] | % binding of 125I-IGF-1 in the presence of the antibody [2] [%] | maximum growth inhibition, 786-O cells, serum-free with IGF-1 100 ng/mL, MTS, antibody 8 nM [3] [%] | maximum growth inhibition, ACHN cells, serum-free with IGF-1 100 ng/mL, MTS, antibody 200 nM [3] [%] | maximum growth inhibition, Caki-2 cells, serum-free with IGF-1 100 ng/mL, MTS, antibody 8 nM [3] [%] | % Positive [4] [%] | MFI [4] | % Positive [5] [%] | MFI [5] | % Positive [6] [%] | MFI [6]
MAB391 (antibody) | 38 | 54 | 34 | 48 | 50 | – | – | – | – | – | –
human IgG (antibody) | – | – | – | – | – | 1.37 | 1.8 | 2.34 | 1.84 | 1.44 | 2.21
